Paper PMC8544800 (Biochemistry, 2020)

Biological target: hexahistidine (6His)-tagged KDM2B/SKP1 dimer (human, UniProt Q8NHM5 1059-1336; P63208 1-163)
Test: BLI

Sequence of hexahistidine (6His)-tagged KDM2B/SKP1 dimer (Q8NHM5 1059-1336, chain 1 of 2): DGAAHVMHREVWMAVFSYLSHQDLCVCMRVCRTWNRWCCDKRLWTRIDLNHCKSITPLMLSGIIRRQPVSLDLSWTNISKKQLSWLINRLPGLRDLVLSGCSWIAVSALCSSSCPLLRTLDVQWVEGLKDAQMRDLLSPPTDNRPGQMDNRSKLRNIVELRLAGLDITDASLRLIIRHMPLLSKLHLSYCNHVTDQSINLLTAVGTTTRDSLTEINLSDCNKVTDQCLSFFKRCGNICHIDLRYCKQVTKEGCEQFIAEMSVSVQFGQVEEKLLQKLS
Sequence of hexahistidine (6His)-tagged KDM2B/SKP1 dimer (P63208 whole entry, chain 2 of 2): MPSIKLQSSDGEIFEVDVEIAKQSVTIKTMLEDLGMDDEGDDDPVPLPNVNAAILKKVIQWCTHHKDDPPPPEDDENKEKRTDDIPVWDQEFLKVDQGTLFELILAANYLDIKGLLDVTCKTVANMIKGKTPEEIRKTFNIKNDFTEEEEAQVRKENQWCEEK

| Binder | Kd [nM] |
| --- | --- |
| PCGF1 RAWUL (150–259)/BCOR PUFD dimer (complex, human) chain 1: LPFSSFDHSKAHYYRYDEQLNLCLERLSSGKDKNKSVLQNKYVRCSVRAEVRHLRRVLCHRLMLNPQHVQLLFDNEVLPDHMTMKQIWLSRWFGKPSPLLLQYSVKEKRR chain 2: SDVFEFEFSETPLLPCYNIQVSVAQGPRNWLLLSDVLKKLKMSSRIFRCNFPNVEIVTIAEAEFYRQVSASLLFSCSKDLEAFNPESKELLDLVEFTNEIQTLLGSSVEWLHPSD | 43000 |
| PCGF1 RAWUL (150–259)/BCOR PUFD Leu1705Gln dimer (complex, human) chain 1: LPFSSFDHSKAHYYRYDEQLNLCLERLSSGKDKNKSVLQNKYVRCSVRAEVRHLRRVLCHRLMLNPQHVQLLFDNEVLPDHMTMKQIWLSRWFGKPSPLLLQYSVKEKRR chain 2: SDVFEFEFSETPLLPCYNIQVSVAQGPRNWLLLSDVLKKLKMSSRIFRCNFPNVEIVTIAEAEFYRQVSASQLFSCSKDLEAFNPESKELLDLVEFTNEIQTLLGSSVEWLHPSD | 32 |
| PCGF1 RAWUL (150–259)/BCOR 1593–1748 dimer (complex, human) chain 1: LPFSSFDHSKAHYYRYDEQLNLCLERLSSGKDKNKSVLQNKYVRCSVRAEVRHLRRVLCHRLMLNPQHVQLLFDNEVLPDHMTMKQIWLSRWFGKPSPLLLQYSVKEKRR chain 2: DASGTWDFYGSSVCEPDDESGYDVLANPPGPEDQDDDDDAYSDVFEFEFSETPLLPCYNIQVSVAQGPRNWLLLSDVLKKLKMSSRIFRCNFPNVEIVTIAEAEFYRQVSASLLFSCSKDLEAFNPESKELLDLVEFTNEIQTLLGSSVEWLHPSD | 106 |
| PCGF1 RAWUL (150–259)/BCOR 1448–1748 dimer (complex, human) chain 1: LPFSSFDHSKAHYYRYDEQLNLCLERLSSGKDKNKSVLQNKYVRCSVRAEVRHLRRVLCHRLMLNPQHVQLLFDNEVLPDHMTMKQIWLSRWFGKPSPLLLQYSVKEKRR chain 2: PMPPEARRLIVNKNAGETLLQRAARLGYEEVVLYCLENKICDVNHRDNAGYCALHEACARGWLNIVRHLLEYGADVNCSAQDGTRPLHDAVENDHLEIVRLLLSYGADPTLATYSGRTIMKMTHSELMEKFLTDYLNDLQGRNDDDASGTWDFYGSSVCEPDDESGYDVLANPPGPEDQDDDDDAYSDVFEFEFSETPLLPCYNIQVSVAQGPRNWLLLSDVLKKLKMSSRIFRCNFPNVEIVTIAEAEFYRQVSASLLFSCSKDLEAFNPESKELLDLVEFTNEIQTLLGSSVEWLHPSD | ~31 |
| PCGF1 RAWUL (150–259)/BCORL1 PUFD dimer (complex, human) chain 1: LPFSSFDHSKAHYYRYDEQLNLCLERLSSGKDKNKSVLQNKYVRCSVRAEVRHLRRVLCHRLMLNPQHVQLLFDNEVLPDHMTMKQIWLSRWFGKPSPLLLQYSVKEKRR chain 2: DDFMFELSDKPLLPCYNLQVSVSRGPCNWFLFSDVLKRLKLSSRIFQARFPHFEITTMPKAEFYRQVASSQLLTPAERPGGLDDRSPPGSSETVELVRYEPDLLRLLGSEVEFQSCNS | ~240 |
